{"source": "patent US9803013B2", "about": "“Biological materials and uses thereof” (BioInvent International AB, priority 2005, dated 2017)", "molecules": {"B1": {"name": "B11: fully human IgG1 antibody specific for ICAM-1; VH and VL sequences of FIG. 10 (SEQ ID NOs. 6 and 8) (antibody, listed as Homo sapiens, V domains shown)", "VH": "EVQLLESGGGLVQPGGSLRLSCAASGFTFSNAWMSWVRQAPGKGLEWVAFIWYDGSNKYYADSVKGRFTISRDNSKNTLYLQMNSLRAEDTAVYYCARYSGWYFDYWGQGTLVTVSS", "VL": "QSVLTQPPSASGTPGQRVTISCTGSSSNIGAGYDVHWYQQLPGTAPKLLIYDNNNRPSGVPDRFSGSKSGTSASLAISGLRSEDEADYYCQSYDSSLSAWLFGGGTKLTVLG"}}, "key": {"[1]": {"system": "A549", "test": "IgG binding to carcinoma cell line, flow cytometry MFI", "parameters": "species or system human", "conditions": "A549, Lung carcinoma", "text": "(§1) The antigen distribution of human antibody targeted antigens, mainly for B11, on different carcinoma cell lines was investigated. Cells (MCF-7 and MDA MB 435S breast carcinoma, JAR and JEG-3 chorio-carcinoma, A549 lung carcinoma, TCC-SUP urinary bladder carcinoma, MDA MB 435 melanoma, HPAC, PANC-1 and BxPC-3 pancreatic carcinoma, PC-3 and DU145 prostate carcinoma, LS174 T, CaCo2, and Lovo colorectal carcinoma, and THP-1 monocytic leukaemia cells), were washed in PBS, and resuspended at 4×10^6 cells/ml in Complete Medium (200,000 cells/50 […] sample). […] Cells were incubated with either of the antibodies for 1 hour on ice, washed by resuspension in PBS/BSA 0.5%, centrifuged at 1200 rpm for 5 min, and complete aspiration of the supernatants was undertaken. Cells were incubated with PE-conjugated Goat F(ab′)2 anti-Human IgG (Caltag Laboratories, Cat no: H10104), diluted 1/50 in PBS/BSA 0.5%, for 30 min, on ice. Following resuspension of in 300 μl PBS/BSA 0.5%, cells were analysed for IgG binding using a FACScan instrument."}, "[2]": {"system": "BxPC-3", "test": "IgG binding to carcinoma cell line, flow cytometry MFI", "parameters": "species or system human", "conditions": "BxPC-3, Pancreatic carcinoma", "text": "as §1"}, "[3]": {"system": "CaCo2", "test": "IgG binding to carcinoma cell line, flow cytometry MFI", "parameters": "species or system human", "conditions": "CaCo2, Colon carcinoma", "text": "as §1"}, "[4]": {"system": "DU145", "test": "IgG binding to carcinoma cell line, flow cytometry MFI", "parameters": "species or system human", "conditions": "DU145, Prostate carcinoma", "text": "as §1"}, "[5]": {"system": "JAR", "test": "IgG binding to carcinoma cell line, flow cytometry MFI", "parameters": "species or system human", "conditions": "Chorio-carcinoma", "text": "as §1"}, "[6]": {"system": "JEG-3", "test": "IgG binding to carcinoma cell line, flow cytometry MFI", "parameters": "species or system human", "conditions": "JEG-3, Chorio-carcinoma", "text": "as §1"}, "[7]": {"system": "Lovo", "test": "IgG binding to carcinoma cell line, flow cytometry MFI", "parameters": "species or system human", "conditions": "Colon carcinoma", "text": "as §1"}, "[8]": {"system": "MDA MB 435S", "test": "IgG binding to carcinoma cell line, flow cytometry MFI", "parameters": "species or system human", "conditions": "Mammary carcinoma", "text": "as §1"}, "[9]": {"system": "PANC-1", "test": "IgG binding to carcinoma cell line, flow cytometry MFI", "parameters": "species or system human", "conditions": "PANC-1, Pancreatic carcinoma", "text": "as §1"}, "[10]": {"system": "PC-3", "test": "IgG binding to carcinoma cell line, flow cytometry MFI", "parameters": "species or system human", "text": "as §1"}, "[11]": {"system": "TCC-SUP", "test": "IgG binding to carcinoma cell line, flow cytometry MFI", "parameters": "species or system human", "conditions": "Urinary bladder carcinoma", "text": "as §1"}, "[12]": {"system": "primary patient MM cells", "test": "SCID-hu mouse model of multiple myeloma", "format": "in vivo", "description": "Bone marrow cells (>20% plasma cells) from myeloma patients (two patients in experiment 1 [top panel] and two different patients in experiment 2 [lower panel]) were injected into transplanted human fetal bones of SCID-hu mice. Four weeks after myeloma cell inoculation mice were divided into four groups to yield similar mean hIgG levels between groups, each group comprising mice grafted with MM cells from the different patient donors used in the experiment, and twice weekly treatment with 2 mg/kg BI-505, 1 mg/kg bortezomib or 2 mg/kg control human IgG was started (arrow). […] Graphs show mean hIgG concentrations.\nPrimary human MM cells depend on interactions with bone marrow stromal cells to proliferate and survive. The SCID-hu mouse harbors a human microenvironment where primary patient MM cells proliferate and induce pathology similar to human clinical MM (Yaccoby et al., 1998). MM cell derived human IgG titers were detected (>10 μg/ml) in the serum of SCID-hu mice four weeks after implantation of human MM cells to transplanted human bones, at which time treatment with antibodies (2 mg/kg) or bortezomib (1 mg/kg) began. Human IgG titers increased steadily in control treated SCID-hu mice over the course of experimentation to reach maximal concentrations of 40±5 μg/ml just before sacrifice (FIG. 18B and FIG. 19). […] Two independent experiments were performed with similar results (FIG. 18B and FIG. 19), each with MM cells from two different patient donors (n=4).\nHuman fetal femurs and tibias, obtained at 17 to 22 gestational weeks, were cut into fragments and implanted subcutaneously in SCID mice (SCID-hu) at age 6 to 8 weeks. Each animal was implanted with one bone fragment. Four weeks after bone implantation, 2 to 14×10^6 bone marrow cells from each patient (two patients per experiment for a total of four patients in two independent experiments, n=4), containing>20% plasma cells were injected directly into the human bone of 6 to 8 SCID-hu mice in a final volume of 30 to 40 μl of phosphate-buffered saline (PBS). One group of mice was implanted with bone only and served as “healthy” bone control. Mouse sera were serially monitored for human immunoglobulin (hIg) and the isotype levels were used as an indicator of myeloma cell growth by elisa. When hIg level reached 10 μg/mL or higher in 2 consecutive measurements after 4 weeks of injection of the tumor cells, the mice were divided into four groups to yield similar mean hIgG levels between groups, each group comprising mice grafted with MM cells from the different patient donors used in each experiment. The four treatment groups were: healthy control group (no myeloma cells injected and no drug treatment), isotype control group (myeloma cells injected and treated with isotype control IgG, 2 mg/kg, i.p., twice weekly), BI505 group (myeloma cells injected and treated with BI505, 2 mg/kg, i.p., twice weekly) and bortezomib group (myeloma cells injected and treated with 1 mg/kg, i.p., twice weekly). In some graphs hIgG levels were normalized to pretreatment (4 weeks) levels and the percent increase or decrease in hIgG levels as a function of treatment and time was analyzed. Normalized data from animals receiving the same treatment (control IgG, BI-505 or bortezomib) but grafted with MM cells from each of the four different patient donors in the two experiments were pooled and statistical difference was assessed by grouped 2-way ANOVA test and Bonferroni's posttest using GraphPad Prism 5 software. Patient myeloma cells were taken after informed consent and with the approval of the local ethics committee. For x-radiography evaluation and quantification of bone mineral density (BMD) mice in the four groups were sacrificed and the implanted human bones were taken out and fixed in 10% formalin solution. Radiographs were taken with an AXR Minishot-100 beryllium source instrument (Associated X-Ray Imaging Corp., Haverhill, Mass., USA) and 100 s exposure at 30 kV. […]"}}}
{"molecule": "B1", "values": [{"measurement": "MFI", "setting": "[1]", "value": 800}, {"measurement": "MFI", "setting": "[2]", "value": 2000}, {"measurement": "MFI", "setting": "[3]", "value": 800}, {"measurement": "MFI", "setting": "[4]", "value": 2200}, {"measurement": "MFI", "setting": "[5]", "value": 2000}, {"measurement": "MFI", "setting": "[6]", "value": 1600}, {"measurement": "MFI", "setting": "[7]", "value": 1600}, {"measurement": "MFI", "setting": "[8]", "value": 800}, {"measurement": "MFI", "setting": "[9]", "value": 3800}, {"measurement": "MFI", "setting": "[10]; PC-3, Prostate carcinoma", "value": 1500}, {"measurement": "binding", "setting": "[10]; PC-3 prostate carcinoma cells", "value": "strong binding"}, {"measurement": "MFI", "setting": "[11]", "value": 3200}, {"measurement": "serum hIgG relative to pre-treatment levels", "setting": "[12]; 2 mg/kg twice weekly from four weeks after MM cell implantation", "value": "91±22", "unit": "%"}, {"measurement": "bone osteoclasts", "setting": "[12]; TRAP staining, compared to control-treated mice", "value": "reduced numbers of bone osteoclasts"}, {"measurement": "bone mineral density", "setting": "[12]; X-radiography of implanted human bones", "value": "decreased loss of bone mineral density"}, {"measurement": "serum human IgG levels", "setting": "[12]; antibody 2 mg/kg or bortezomib 1 mg/kg twice weekly", "value": "halted or reduced serum human IgG levels to below pre-treatment levels"}, {"measurement": "tumor burden in human bone implants", "setting": "[12]; human CD138 immunohistochemistry", "value": "decreased tumor burden"}]}
